Assay results as given in US20050079574A1.
Residue numbers refer to the chain shown, from its start.

B1: SEQ ID NO 69 (antibody, part only; not given: template light chain, V domains shown, part only)
VH: EVQLVESGGGLVQPGGSLRLSCAASGFNIKDTYIHWVRQAPGKGLEWVARIYPTNGYTRYADSVKGRFTISADTSKNTAYLQMNSLRAEDTAVYYCSRSRGWWTAAMDVWGQGTLVTVSS
B2: SEQ ID NO 70 (antibody, part only; not given: template light chain, V domains shown, part only)
VH: B1 VH with S99A, R100S, G101R, W102D, T104Y, A105G

Target: IGF1 (Insulin-like Growth Factor 1) (UniProt P05019)
Assay: IC50 (uM) column of the drawn table; phage clone of the F(ab')2 L3/H3 library on the 4D5 template, IC50 analysed as in Sidhu et al. (P-0517); source oligo (DVK)7

Row | Binder | IC50
1 | B1 | 0.3 µM
2 | B2 | 15 µM
